From PMC6170606, “Biological and Biochemical Roles of Two Distinct Cyclic Dimeric Adenosine 3′,5′-Monophosphate- Associated Phosphodiesterases in Streptococcus mutans” (Frontiers in Microbiology, 2018)

Assays:
[1] = tested on: Nc1ncnc2c1ncn2[C@@H]1O[C@H](COP(=O)(O)O[C@H]2[C@@H](O)[C@H](n3cnc4c(N)ncnc43)O[C@@H]2COP(=O)(O)O)[C@@H](O)[C@H]1O; assay: initial rate, LC quantification of end product AMP (A254); type: biochemical, Streptococcus mutans; conditions: 50 mM potassium phosphate pH 7.0, 1 mM MnCl2, 0-0.3 mM substrate
Description: initial rate, LC quantification of end product AMP (A254) on rDhhP-ProS2 (recombinant DhhP, SMU_1297)

[2] = tested on: [H][C@@]1(O)[C@]2([H])OP(=O)(O)OC[C@@]3([H])O[C@@]([H])(n4cnc5c(N)ncnc54)[C@]([H])(O)[C@]3([H])OP(=O)(O)OC[C@@]2([H])O[C@@]1([H])n1cnc2c(N)ncnc21; assay: purified protein; conditions: 50 mM potassium phosphate pH 5.0, 1 mM MnCl2, 0-0.3 mM substrate
Description: initial rate, LC quantification of end product pApA (A254) on rGdpP109-657-ProS2 (truncated recombinant GdpP, SMU_2140c)

Substance	Km [1] [µM]	Vmax [1] [µmol/min/mg]	kcat [1] [s⁻¹]	Km [2] [µM]	Vmax [2] [µmol/min/mg]	kcat [2] [s⁻¹]
rDhhP-ProS2 (recombinant DhhP, SMU_1297) (Streptococcus mutans UA159)	199 ± 65.4	32.1	36.5 ± 8.08	–	–	–
rGdpP109-657-ProS2 (truncated recombinant GdpP, SMU_2140c) (Streptococcus mutans UA159)	–	–	–	89.7 ± 7.29	4.58	4.02 ± 0.2
